Measured values taken from the supplement of paper PMC11246515.
± gives the standard deviation of the averaged measurements.

Assay: total protein half-life in vivo (active degradation + dilution); higher = more stable protein
[1] = E. coli NCM3722 delta-clpP delta-lon delta-hslV, growth: N-lim chemostat, doubling time 6 h
[2] = E. coli NCM3722 delta-lon, growth: N-lim chemostat, doubling time 6 h
[3] = wild type E. coli NCM3722, growth: C-lim chemostat, doubling time 6 h
[4] = wild type E. coli NCM3722, growth: C-lim chemostat, doubling time 12 h
[5] = wild type E. coli NCM3722, growth: P-lim chemostat, doubling time 12 h
[6] = wild type E. coli NCM3722, growth: C-lim chemostat, doubling time 3 h
[7] = wild type E. coli NCM3722, growth: N-lim chemostat, doubling time 12 h
[8] = E. coli NCM3722 delta-clpP, growth: N-lim chemostat, doubling time 6 h
[9] = E. coli NCM3722 delta-hslV, growth: N-lim chemostat, doubling time 6 h
[10] = E. coli NCM3722 delta-smpB, growth: N-lim chemostat, doubling time 6 h
[11] = wild type E. coli NCM3722, growth: N-lim chemostat, doubling time 6 h
[12] = wild type E. coli NCM3722, growth: P-lim chemostat, doubling time 6 h

| Sequence | total protein half-life in vivo [1] | total protein half-life in vivo [2] | total protein half-life in vivo [3] | total protein half-life in vivo [4] | total protein half-life in vivo [5] | total protein half-life in vivo [6] | total protein half-life in vivo [7] | total protein half-life in vivo [8] | total protein half-life in vivo [9] | total protein half-life in vivo [10] | total protein half-life in vivo [11] | total protein half-life in vivo [12] |
| --- | --- | --- | --- | --- | --- | --- | --- | --- | --- | --- | --- | --- |
| MKRLQAFKFQLRPGGQQECEMRRFAGACRFVFNRALARQNENHEAGNKYIPYGKMASWLVEWKNATETQWLKDSPSQPLQQSLKDLERAYKNFFRKRAAFPRFKKRGQNDAFRYPQGVKLDQENSRIFLPKLGWMRYRNSRQVTGVVKNVTVSQSCGKWYISIQTESEVSTPVHPSASMVGLDAGVAKLATLSDGTVFEPVNSFQKNQKKLARLQRQLSRKVKFSNNWQKQKRKIQRLHSCIANIRRDYLHKVTTAVSKNHAMIVIEDLKVSNMSKSAAGTVSQPGRNVRAKSGLNRSILDQGWYEMRRQLAYKQLWRGGQVLAVPPAYTSQRCAYCGHTAKENRLSQSKFRCQVCGYTANADVNGARNILAAGHAVLACGEMVQSGRPLKQEPTEMIQATA | 5.63 h | 3.54 h | 6.1 ± 0.35 h | 10.6 h | > 16 h | – | – | – | – | – | – | – |
| MKRLRNKMTTEELAECLGVAKQTVNRWIREKGWKTEKFPGVKGGRARLILVDTQVCEFIQNTPAFHNTPMLMEAEERIAEYAPGARAPAYRQIINAIDNMTDIEQEKVAQFLSREGIRNFLARLDIDESA | 6.16 ± 0.29 h | – | 4.56 h | 7.65 ± 1 h | 4.26 h | 2.58 ± 0.081 h | 4.62 h | – | – | – | – | – |
| MKRMIALDGAQGEGGGQILRSALSLSMITGQPFTITSIRAGRAKPGLLRQHLTAVKAATEICGATVEGAELGSQRLLFRPGTVRGGDYRFAIGSAGSCTLVLQTVLPALWFADGPSRVEVSGGTDNPSAPPADFIRRVLEPLLAKIGIHQQTTLLRHGFYPAGGGVVATEVSPVASFNTLQLGERGNIVQMRGEVLLAGVPRHVAEREIATLAGSFSLHEQNIHNLPRDQGPGNTVSLEVESENITERFFVVGEKRVSAEVVAAQLVKEVKRYLASTAAVGEYLADQLVLPMALAGAGEFTVAHPSCHLLTNIAVVERFLPVRFSLIETDGVTRVSIE | 5.12 ± 0.25 h | 4.457 ± 0.014 h | 5.6 ± 0.12 h | 11.3 ± 1.7 h | 10.9 h | 2.59 h | – | 4.65 h | 5.05 h | 4.17 ± 0.09 h | 4.52 ± 0.4 h | 5.28 ± 0.24 h |
| MKRNAKTIIAGMIALAISHTAMADDIKVAVVGAMSGPIAQWGDMEFNGARQAIKDINAKGGIKGDKLVGVEYDDACDPKQAVAVANKIVNDGIKYVIGHLCSSSTQPASDIYEDEGILMISPGATNPELTQRGYQHIMRTAGLDSSQGPTAAKYILETVKPQRIAIIHDKQQYGEGLARSVQDGLKAANANVVFFDGITAGEKDFSALIARLKKENIDFVYYGGYYPEMGQMLRQARSVGLKTQFMGPEGVGNASLSNIAGDAAEGMLVTMPKRYDQDPANQGIVDALKADKKDPSGPYVWITYAAVQSLATALERTGSDEPLALVKDLKANGANTVIGPLNWDEKGDLKGFDFGVFQWHADGSSTAAK | 5.85 ± 0.11 h | 5.84 ± 0.097 h | 6.134 ± 0.039 h | 11.9 ± 0.26 h | 14.3 ± 1.1 h | 3.077 ± 0.0084 h | 12.2 ± 0.64 h | 6.16 ± 0.79 h | 6.48 ± 0.55 h | 6.01 ± 0.47 h | 5.87 ± 0.27 h | 5.65 ± 0.13 h |
| MKRSISFRPTLLALVLATNFPVAHAAVPKDMLVIGKAADPQTLDPAVTIDNNDWTVTYPSYQRLVQYKTDGDKGSTDVEGDLASSWKASDDQKEWTFTLKDNAKFADGTPVTAEAVKLSFERLLKIGQGPAEAFPKDLKIDAPDEHTVKFTLSQPFAPFLYTLANDGASIINPAVLKEHAADDARGFLAQNTAGSGPFMLKSWQKGQQLVLVPNPHYPGNKPNFKRVSVKIIGESASRRLQLSRGDIDIADALPVDQLNALKQENKVNVAEYPSLRVTYLYLNNSKAPLNQADLRRAISWSTDYQGMVNGILSGNGKQMRGPIPEGMWGYDATAMQYNHDETKAKAEWDKVTSKPTSLTFLYSDNDPNWEPIALATQSSLNKLGIIVKLEKLANATMRDRVGKGDYDIAIGNWSPDFADPYMFMNYWFESDKKGLPGNRSFYENSEVDKLLRNALATTDQTQRTRDYQQAQKIVIDDAAYVYLFQKNYQLAMNKEVKGFVFNPMLEQVFNINTMSK | 4.61 ± 0.059 h | 5.74 ± 0.097 h | 4.77 ± 0.049 h | 7.85 ± 0.62 h | 12.42 ± 0.093 h | 2.73 ± 0.04 h | 7.37 ± 0.29 h | 5.72 ± 1.4 h | 5 ± 0.15 h | 5.02 ± 0.13 h | 5.26 ± 0.5 h | – |
| MKRTKSIRHASFRKNWSARHLTPVALAVATVFMLAGCEKSDETVSLYQNADDCSAANPGKSAECTTAYNNALKEAERTAPKYATREDCVAEFGEGQCQQAPAQAGMAPENQAQAQQSSGSFWMPLMAGYMMGRLMGGGAGFAQQPLFSSKNPASPAYGKYTDATGKNYGAAQPGRTMTVPKTAMAPKPATTTTVTRGGFGESVAKQSTMQRSATGTSSRSMGG [P0ADT2] | 3.82 ± 0.98 h | 3.69 ± 0.096 h | 3.71 ± 0.29 h | 5.86 ± 0.6 h | 7.48 ± 0.2 h | 1.83 ± 0.4 h | 7.11 ± 0.26 h | 4.17 ± 0.3 h | 3.89 ± 0.12 h | 3.22 ± 0.56 h | 4.08 ± 0.88 h | 3.45 ± 0.38 h |
| MKRVLIPGVILCGADVAQAVDDKNMYMHFFEEMTVYAPVPVPVNGNTHYTSESIERLPTGNGNISDLLRTNPAVRMDSTQSTSLNQGDIRPEKISIHGASPYQNAYLIDGISATNNLNPANESDASSATNISGMSQGYYLDVSLLDNVTLYDSFVPVEFGRFNGGVIDAKIKRFNADDSKVKLGYRTTRSDWLTSHIDENNKSAFNQGSSGSTYYSPDFKKNFYTLSFNQELADNFGVTAGLSRRQSDITRADYVSNDGIVAGRAQYKNVIDTALSKFTWFASDRFTHDLTLKYTGSSRDYNTSTFPQSDREMGNKSYGLAWDMDTQLAWAKLRTTVGWDHISDYTRHDHDIWYTELSCTYGDITGRCTRGGLGHISQAVDNYTFKTRLDWQKFAVGNVSHQPYFGAEYIYSDAWTERHNQSESYVINAAGKKTNHTIYHKGKGRLGIDNYTLYMADRISWRNVSLMPGVRYDYDNYLSNHNISPRFMTEWDIFANQTSMITAGYNRYYGGNILDMGLRDIRNSWTESVSGNKTLTRYQDLKTPYNDELAMGLQQKIGKNVIARANYVYREAHDQISKSSRTDSATKTTITEYNNDGKTKTHSFSLSFELAEPLHIRQVDINPQIVFSYIKSKGNLSLNNGYEESNTGDNQVVYNGNLVSYDSVPVADFNNPLKISLNMDFTHQPSGLVWANTLAWQEARKARIILGKTNAQYISEYSDYKQYVDEKLDSSLTWDTRLSWTPQFLQQQNLTISADILNVLDSKTAVDTTNTGVATYASGRTFWLDVSMKF | 5.87 ± 0.22 h | – | 6.17 ± 0.26 h | 9.31 ± 0.88 h | 14.44 ± 0.031 h | 3.16 ± 0.12 h | 12.2 ± 1.3 h | 5.83 ± 0.27 h | > 8 h | 5.751 ± 0.012 h | 6.68 h | 6.72 h |
| MKRVLTALAATLPFAANAADAISGAVERQPTNWQAIIMFLIFVVFTLGITYWASKRVRSRSDYYTAGGNITGFQNGLAIAGDYMSAASFLGISALVFTSGYDGLIYSLGFLVGWPIILFLIAERLRNLGRYTFADVASYRLKQGPIRILSACGSLVVVALYLIAQMVGAGKLIELLFGLNYHIAVVLVGVLMMMYVLFGGMLATTWVQIIKAVLLLFGASFMAFMVMKHVGFSFNNLFSEAMAVHPKGVDIMKPGGLVKDPISALSLGLGLMFGTAGLPHILMRFFTVSDAREARKSVFYATGFMGYFYILTFIIGFGAIMLVGANPEYKDAAGHLIGGNNMAAVHLANAVGGNLFLGFISAVAFATILAVVAGLTLAGASAVSHDLYANVFKKGATEREELRVSKITVLILGVIAIILGVLFENQNIAFMVGLAFAIAASCNFPIILLSMYWSKLTTRGAMMGGWLGLITAVVLMILGPTIWVQILGHEKAIFPYEYPALFSITVAFLGIWFFSATDNSAEGARERELFRAQFIRSQTGFGVEQGRAH | – | – | 6.1 ± 0.31 h | 12.9 ± 1.4 h | 8.62 h | > 4 h | – | – | – | – | – | – |
| MKRYTPDFPEMMRLCEMNFSQLRRLLPRNDAPGETVSYQVANAQYRLTIVESTRYTTLVTIEQTAPAISYWSLPSMTVRLYHDAMVAEVCSSQQIFRFKARYDYPNKKLHQRDEKHQINQFLADWLRYCLAHGAMAIPVY [P0ADU7] | 6.32 ± 0.34 h | 2.11 ± 0.32 h | 2.76 ± 0.49 h | – | 7.5 ± 0.71 h | – | 2.84 h | 5.73 ± 0.49 h | 1.79 h | 2.25 ± 0.22 h | 2.03 h | 3.67 ± 0.23 h |
| MKSLQALFGGTFDPVHYGHLKPVETLANLIGLTRVTIIPNNVPPHRPQPEANSVQRKHMLELAIADKPLFTLDERELKRNAPSYTAQTLKEWRQEQGPDVPLAFIIGQDSLLTFPTWYEYETILDNAHLIVCRRPGYPLEMAQPQYQQWLEDHLTHNPEDLHLQPAGKIYLAETPWFNISATIIRERLQNGESCEDLLPEPVLTYINQQGLYR [P0A752] | 4.39 ± 0.63 h | 5.03 ± 0.38 h | 4.95 ± 0.23 h | 11.3 ± 2.1 h | 8.78 ± 2.9 h | 3.34 ± 0.12 h | 7.22 ± 0.54 h | – | 5 ± 0.32 h | 4.2 ± 0.31 h | 4.49 h | 5.47 h |
| MKSLSYKRIYKSQEYLATLGTIEYRSLFGSYSLTVDDTVFAMVSDGELYLRACEQSAQYCVKHPPVWLTYKKCGRSVTLNYYRVDESLWRNQLKLVRLSKYSLDAALKEKSTRNTRERLKDLPNMSFHLEAILGEVGIKDVRALRILGAKMCWLRLRQQNSLVTEKILFMLEGAIIGIHEAALPVARRQELAEWADSLTPKQEFPAELE | 5.96 h | – | 4.19 h | 9.22 h | – | 2.28 h | – | – | – | – | – | 3.79 ± 0.53 h |
